In paper doi:10.1101/2021.05.10.443412 (bioRxiv, 2021):
Changes are numbered by the printed parent chain.

How the values were obtained:
Experiment in all cases: ITC
[1] = molecular target: factor inhibiting HIF-1 (FIH-1), full-length (human, UniProt Q9NWT6 1-349)
FIH-1 Y71A = FIH-1 Y71A (human, UniProt Q9NWT6 1-349, Tyr71 replaced with Ala)
FIH-1 K75A = FIH-1 K75A (human, UniProt Q9NWT6 1-349, Lys75 replaced with Ala)
FIH-1 E79A = FIH-1 E79A (human, UniProt Q9NWT6 1-349, Glu79 replaced with Ala)
Sequence of FIH-1 E79A (Q9NWT6 whole entry E79A): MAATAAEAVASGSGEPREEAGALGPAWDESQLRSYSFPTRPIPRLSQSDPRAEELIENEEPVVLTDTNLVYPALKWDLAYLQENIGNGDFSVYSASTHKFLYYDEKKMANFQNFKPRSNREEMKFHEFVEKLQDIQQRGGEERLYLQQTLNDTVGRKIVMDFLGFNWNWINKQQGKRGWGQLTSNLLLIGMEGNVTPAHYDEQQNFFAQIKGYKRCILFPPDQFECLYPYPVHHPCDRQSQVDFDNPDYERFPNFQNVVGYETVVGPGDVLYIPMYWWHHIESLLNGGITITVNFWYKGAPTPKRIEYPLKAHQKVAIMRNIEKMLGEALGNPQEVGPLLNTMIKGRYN

FIH-1 N171A = FIH-1 N171A (human, UniProt Q9NWT6 1-349, Asn171 replaced with Ala)
Sequence of FIH-1 N171A (Q9NWT6 whole entry N171A): as the sequence (Q9NWT6 whole entry E79A) above, with A79E, N171A counted along it

FIH-1 E29A = FIH-1 E29A (human, UniProt Q9NWT6 1-349, Glu29 replaced with Ala)
Sequence of FIH-1 E29A (Q9NWT6 whole entry E29A): as the sequence (Q9NWT6 whole entry E79A) above, with E29A, A79E counted along it

FIH-1 D248A = FIH-1 D248A (human, UniProt Q9NWT6 1-349, Asp248 replaced with Ala)
Sequence of FIH-1 D248A (Q9NWT6 whole entry D248A): as the sequence (Q9NWT6 whole entry E79A) above, with A79E, D248A counted along it

FIH-1 E250A = FIH-1 E250A (human, UniProt Q9NWT6 1-349, Glu250 replaced with Ala)
Sequence of FIH-1 E250A (Q9NWT6 whole entry E250A): as the sequence (Q9NWT6 whole entry E79A) above, with A79E, E250A counted along it

Sequence of factor inhibiting HIF-1 (FIH-1), full-length (Q9NWT6 whole entry): as the sequence (Q9NWT6 whole entry E79A) above, with A79E counted along it
Sequence of FIH-1 Y71A (Q9NWT6 whole entry Y71A): as the sequence (Q9NWT6 whole entry E79A) above, with Y71A, A79E counted along it
Sequence of FIH-1 K75A (Q9NWT6 whole entry K75A): as the sequence (Q9NWT6 whole entry E79A) above, with K75A, A79E counted along it

B1: Mint3 fragment (1-92) (domain or fragment)
chain: MDFPTISRSPSGPPAMDLEGPRDILVPSEDLTPDSQWDPMPGGPGSLSRMELDESSLQELVQQFEALPGDLVGPSPGGAPCPLHIATGHGLA
B1 was tested. Which “stoichiometry N” value [1] did it give?
The value was about 0.5.

Which Kd [1] does the source give for SQEIADAHGLLSAEAGRDDLLGLLH [short peptide of Mint3 (93-117)] here?
Its Kd is 3000 ± 600 nM.

What about the “stoichiometry N” value [1] of the same binder?
Its value is about 0.5.

B2: Mint3 (1-117) (domain or fragment)
chain: MDFPTISRSPSGPPAMDLEGPRDILVPSEDLTPDSQWDPMPGGPGSLSRMELDESSLQELVQQFEALPGDLVGPSPGGAPCPLHIATGHGLASQEIADAHGLLSAEAGRDDLLGLLH
Which results are given for B2?
Kd [1]: 650 ± 70 nM; stoichiometry N [1]: ~0.5

B3: Mint3NT, N-terminal fragment (1-214) of Mint3 (domain or fragment)
chain: MDFPTISRSPSGPPAMDLEGPRDILVPSEDLTPDSQWDPMPGGPGSLSRMELDESSLQELVQQFEALPGDLVGPSPGGAPCPLHIATGHGLASQEIADAHGLLSAEAGRDDLLGLLHCEECPPSQTGPEEPLEPAPRLLQPPEDPDEDSDSPEWVEGASAEQEGSRSSSSSPEPWLETVPLVTPEEPPAGAQSPETLASYPAPQEVPGPCDHED
Does B3 bind (FIH-1 Y71A)?
Result: binds

Does B3 bind (FIH-1 K75A)?
Result: binds

Does B3 bind (FIH-1 E79A)?
Result: binds

Does B3 bind (FIH-1 N171A)?
Result: binds

Does B3 bind (FIH-1 E29A)?
Result: binds

Does B3 bind (FIH-1 D248A)?
Result: binds

Does B3 bind (FIH-1 E250A)?
Result: binds

And the dH [1]?
The dH was -32.2 ± 0.7 kcal/mol.

And the “stoichiometry N” value [1]?
Its value is 0.48 ± 0.02.

B4: Mint3NTmut (domain or fragment)
chain: B3 chain with G101A, L102A, L103A, E106A
Which results are given for B4?
Kd [1]: 1310 nM; dH [1]: -13.9 kcal/mol; stoichiometry N [1]: ~0.5
